Results reported in patent US10202593B2, “Evolved sortases and uses thereof” (President and Fellows of Harvard College, priority 2013, dated 2019).
Changes are numbered by the printed parent chain. Numbers in names are those of the source. Read-outs that look alike come from different tables or passages of the source.

Assays:
[1] = Materials (surface) functionalization of GGG-PEG 96-well plates; assay type: biochemical; conditions: Alexa Fluor 488-LAETGG or Alexa Fluor 647-LPESGG, 2 hours
Experimental: FIG. 21A-D show applications of evolved sortases. (A) N- and C-terminal labeling of fibroblast growth factors FGF1 and FGF2. Tandem SUMO-TEV cleavage site-FGF1/2-LPESG-His6 (SEQ ID NO: 27) constructs were treated with eSrtA(4S-9) in the presence of GGG-PEG, then with eSrtA(2A-9) and TEV protease in the presence of Alexa Fluor750-LAETGG (SEQ ID NO: 35) and purified to afford the final conjugates in up to 20% yield (Table 3). The crude reactions were analyzed by SDS-PAGE and scanned for fluorescence at 700 nm. (B) Surface functionalization using eSrtA(2A-9) and eSrtA(4S-9). […] The total fluorescence of the resulting surfaces was measured at 488 nm or 647 nm, then normalized to the fluorescent intensities obtained from the samples containing eSrtA(2A-9)+488-LAETG (SEQ ID NO: 5) or eSrt(4S-9)+647-LPESG (SEQ ID NO: 3). […]
GGG-functionalized substrate was generated by incubating 100 μL of 2 μM biotin-PEG (5K)-GGG in streptavidin coated 96 well microplates (Pierce) for 2 hours at room temperature, and washed three times with TBST buffer (20 mM Tris, 100 mM NaCl, pH 7.5 with 0.05% Tween 20). […] Total fluorescent intensities were measured at 488 nm and 647 nm using a Biotek Synergy NEO HTS Multi Mode microplate reader. […]

[2] = tested on: LPECG; assay: In vitro sortase kinetics HPLC assay, LPECG substrate; assay type: biochemical
Experimental: See below for details on sortase expression and purification, and on the synthesis of Abz-LPETGK(Dnp)-CONH2 (SEQ ID NO: 19). […] Reactions were initiated with the addition of enzyme and incubated at 22.5° C. for 3 to 20 minutes before quenching with 0.5 volumes of 1 M HCl. Five to ten nmol of peptide from the quenched reactions were injected onto an analytical reverse-phase Eclipse XDB-C18 HPLC column (4.6×150 mm, 5 μm, Agilent Technologies) and chromatographed using a gradient of 10 to 65% acetonitrile with 0.1% TFA in 0.1% aqueous TFA over 13 minutes. Retention times under these conditions for the Abz-LPETGK(Dnp)-CONH2 (SEQ ID NO: 19) substrate, the released GKDnp peptide, and the Abz-LPETGGG-COOH (SEQ ID NO: 20) product were 12.8, 10.4, and 9.1 min, respectively. To calculate the percent conversion, the ratio of the integrated areas of the Abz-LPETGGG-COOH (SEQ ID NO: 20) and Abz-LPETGK(Dnp)-CONH2 (SEQ ID NO: 19) peptide Abs220 peaks was compared to a standard curve generated by mixing the product and starting peptide in known ratios. To determine […] and Km, reaction rates were fit to the Michaelis-Menten equation using OriginPro 7.0 software. All kinetics values reported represent the average of at least three measurements. Percent conversion was also calculated by using the ratio of the integrated areas of the GK(Dnp)-CONH2 and Abz-LPETGK(Dnp)-CONH2 peptide Abs355 peaks were compared directly (Example 5). To determine kcat and Km, LPETG, reaction rates were fit to the Michaelis-Menten equation using Microsoft Excel using the Solver add-in. To determine Km,GGG and KH, reaction rates were fit to the modified Michaelis-Menten, for which KH is as defined when KH<<Km,GGG.
Assays to determine eSrtA, eSrtA(2A-9) and eSrtA(4S-9) specificity were performed by preparing 10 μM stocks of Abz-LXEXGK(Dnp) (SEQ ID NO: 75) peptides in 300 mM Tris pH 7.5, 150 mM NaCl, 5 mM CaCl2, 5% v/v DMSO, and 100 mM Gly-Gly-Gly-COOH (GGG). Reactions were performed by adding eSrtA(2A-9) to a final concentration of 450 nM, eSrtA(4S-9) to a final concentration of 115 nM or eSrtA to a final concentration of 47.5 nM and a final volume of 100 μL, then incubating at 22.5° C. for 15 minutes. Reactions were quenched by the addition of 0.2 volumes of 5 M HCl, then were injected onto an analytical reverse-phase Eclipse XDB-C18 HPLC column (4.6×150 mm, 5 μm, Agilent Technologies) and chromatographed using a gradient of 10 to 65% acetonitrile with 0.1% TFA in 0.1% aqueous TFA over 13 minutes. Retention times under these conditions for the Abz-LPETGK(Dnp)-CONH2 (SEQ ID NO: 19) substrate, the released GKDnp peptide, and the Abz-LPETGGG-COOH (SEQ ID NO: 20) product were 12.8, 10.4, and 9.1 min, respectively, while the remaining Abz-LXEXGK(Dnp)-CONH2 (SEQ ID NO: 74) substrates varied in retention time between 9 and 13 minutes. To calculate the percent conversion, the ratio of the integrated areas of the GK(Dnp)-CONH2 and Abz-LPETGK(Dnp)-CONH2 (SEQ ID NO: 19) peptide Abs355 peaks were compared directly. Subsequent determination of kcat/Km and KH were performed as described for in vitro SrtA characterization.
The original pentamutant comprising the mutations P94R, D160N, D165A, K190E, and K196T is referred to as eSrtA. Sortase variants herein were evolved using eSrtA as the parent enzyme in the evolution experiments. In some cases, an evolved sortase comprises a N160K mutation instead of a D160N or a T196S mutation instead of a K196T. Parameters are reported with their standard deviations as determined from three technical replicates. kcat, Km and kcat/Km parameters were determined at 100 mM GGG concentration, while Km,GGG and KH parameters were determined at 1 mM concentration of the listed substrate.

[3] = Sub LPECG, 100 mM GGG, read-out: Km

B1: eSrtA(2A-9): P94R, S102C, A104H, E105D, K138P, K152I, N160K, K162H, T164N, D165A, K173E, I182V, K190E, T196S (protein)
chain: QAKPQIPKDKSKVAGYIEIPDADIKEPVYPGPATREQLNRGVCFHDENESLDDQNISIAGHTFIDRPNYQFTNLKAAKPGSMVYFKVGNETRIYKMTSIRKVHPNAVEVLDEQEGKDKQLTLVTCDDYNEETGVWESRKIFVATEVK
modification of GGG-PEG-functionalized surfaces [1]: significant modification only on its cognate substrate

B2: eSrtA (protein)
chain: QAKPQIPKDKSKVAGYIEIPDADIKEPVYPGPATREQLNRGVSFAEENESLDDQNISIAGHTFIDRPNYQFTNLKAAKKGSMVYFKVGNETRKYKMTSIRNVKPTAVEVLDEQKGKDKQLTLITCDDYNEETGVWETRKIFVATEVK
activity for LPECG compared with LPETG [2]: exceeds that of LPETG | KH ([2]; 1 mM LPECG): 620 ± 150 µM | Km ([2]; 1 mM LPECG, read-out: Km,GGG): 57 ± 33 mM | Kcat (Hz) ([2]; Sub LPECG, 100 mM GGG): 3.5 ± 0.3 Hz | Km [2, 3]: 0.0725 ± 0.0056 mM

B3: eSrtA(4S-9): P94R, N98D, S102C, A104V, A118T, F122A, K134R, F144L, D160N, D165A, I182V, E189F, K190E, K196T (protein)
chain: B2 chain with N39D, S43C, A45V, A59T, F63A, K75R, F85L, I123V, E130F
activity for LPECG compared with LPETG [2]: exceeds that of LPETG | KH ([2]; 1 mM LPECG): 120 ± 23 µM | Km ([2]; 1 mM LPECG, read-out: Km,GGG): 55 ± 1.4 mM | Kcat (Hz) ([2]; Sub LPECG, 100 mM GGG): 5.0 ± 0.6 Hz | Km [2, 3]: 0.069 ± 0.013 mM | modification of GGG-PEG-functionalized surfaces [1]: significant modification only on its cognate substrate
